These results are taken from publication PMC10491584, “Structural convergence endows nuclear transport receptor Kap114p with a transcriptional repressor function toward TATA-binding protein” (Nature Communications, 2023).

The target of one experiment is T1, Kap114pΔY933 (S. cerevisiae, UniProt P53067 1-1004, ΔY933).
T1 construct: Kap114p, S. cerevisiae, full length with residue Y933 deleted; also called Kap114p(DY933); source: E. coli (Rosetta strain), purified (GST resin, MonoQ, Superdex 200)
T1 sequence (looked up): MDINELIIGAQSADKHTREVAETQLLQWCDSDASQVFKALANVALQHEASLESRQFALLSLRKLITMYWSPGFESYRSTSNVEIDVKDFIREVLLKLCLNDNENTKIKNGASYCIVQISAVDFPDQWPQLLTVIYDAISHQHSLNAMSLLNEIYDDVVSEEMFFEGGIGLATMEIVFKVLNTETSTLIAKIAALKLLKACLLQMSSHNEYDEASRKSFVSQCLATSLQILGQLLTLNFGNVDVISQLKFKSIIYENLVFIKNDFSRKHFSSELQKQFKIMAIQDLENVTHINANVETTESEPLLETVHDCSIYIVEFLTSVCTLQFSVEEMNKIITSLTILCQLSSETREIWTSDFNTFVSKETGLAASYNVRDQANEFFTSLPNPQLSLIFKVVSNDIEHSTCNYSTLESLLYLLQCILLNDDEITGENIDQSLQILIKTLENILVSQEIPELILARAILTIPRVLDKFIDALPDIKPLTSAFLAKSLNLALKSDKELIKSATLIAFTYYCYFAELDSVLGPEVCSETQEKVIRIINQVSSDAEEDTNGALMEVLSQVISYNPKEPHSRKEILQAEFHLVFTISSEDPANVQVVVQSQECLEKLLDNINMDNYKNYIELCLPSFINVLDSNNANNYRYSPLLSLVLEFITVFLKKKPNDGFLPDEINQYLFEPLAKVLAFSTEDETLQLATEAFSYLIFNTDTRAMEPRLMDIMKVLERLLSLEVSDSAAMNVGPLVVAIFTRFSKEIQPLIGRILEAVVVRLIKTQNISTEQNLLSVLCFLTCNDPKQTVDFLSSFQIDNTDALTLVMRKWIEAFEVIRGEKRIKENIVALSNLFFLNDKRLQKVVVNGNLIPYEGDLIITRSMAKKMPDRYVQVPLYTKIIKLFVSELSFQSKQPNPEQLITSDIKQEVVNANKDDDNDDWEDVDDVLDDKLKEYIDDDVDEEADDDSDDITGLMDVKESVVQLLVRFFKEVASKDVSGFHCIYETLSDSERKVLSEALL
As to the kind of experiment: ITC; Kap114p (wild type or mutant) 50 uM in the sample cell, partner 500 uM in the syringe; 25 °C; 20 mM HEPES pH 7.4, 150 mM NaCl; triplicate. To be noted: both partners purified.

The next experiment has as its target T2, Kap114p (S. cerevisiae, UniProt P53067 1-1004).
T2 construct: Kap114p, S. cerevisiae, full length, amplified from total genomic DNA; also called wild type Kap114p; source: E. coli (Rosetta strain), purified (GST resin, MonoQ, Superdex 200)
T2 sequence (looked up): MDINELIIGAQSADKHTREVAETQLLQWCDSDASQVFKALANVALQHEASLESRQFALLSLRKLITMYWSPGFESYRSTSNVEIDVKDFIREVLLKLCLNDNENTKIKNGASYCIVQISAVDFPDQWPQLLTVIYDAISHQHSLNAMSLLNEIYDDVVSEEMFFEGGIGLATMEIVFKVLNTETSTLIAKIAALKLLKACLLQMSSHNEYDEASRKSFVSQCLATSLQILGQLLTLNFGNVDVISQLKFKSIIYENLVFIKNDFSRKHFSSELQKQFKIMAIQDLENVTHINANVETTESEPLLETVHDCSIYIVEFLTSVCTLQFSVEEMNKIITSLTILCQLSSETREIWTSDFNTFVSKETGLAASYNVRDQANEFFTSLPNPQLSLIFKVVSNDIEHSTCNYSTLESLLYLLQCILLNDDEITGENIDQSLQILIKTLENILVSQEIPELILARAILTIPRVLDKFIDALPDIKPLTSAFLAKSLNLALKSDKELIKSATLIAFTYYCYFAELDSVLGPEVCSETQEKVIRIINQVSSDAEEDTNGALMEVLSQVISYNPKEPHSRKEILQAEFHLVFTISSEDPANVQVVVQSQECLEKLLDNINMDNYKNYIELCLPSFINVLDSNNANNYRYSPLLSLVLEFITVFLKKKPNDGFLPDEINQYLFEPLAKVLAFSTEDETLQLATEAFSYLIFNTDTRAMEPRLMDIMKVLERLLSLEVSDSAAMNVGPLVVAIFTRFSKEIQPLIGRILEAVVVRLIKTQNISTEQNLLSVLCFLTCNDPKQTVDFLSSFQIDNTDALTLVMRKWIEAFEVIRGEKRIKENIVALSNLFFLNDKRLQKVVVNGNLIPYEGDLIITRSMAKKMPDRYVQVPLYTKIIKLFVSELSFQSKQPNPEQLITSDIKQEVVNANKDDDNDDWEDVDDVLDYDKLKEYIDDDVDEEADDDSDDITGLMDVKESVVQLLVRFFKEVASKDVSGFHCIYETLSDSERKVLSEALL
The experiment is described as above. The following applies: both partners purified.

“And” between values parts separate entries of the source, which are not always exact repeats. Equal values may be shown once.

B1: core domain of yTBP (a.a. 61-240) (domain or fragment, S. cerevisiae, UniProt P13393 61-240, looked up)
chain: SGIVPTLQNIVATVTLGCRLDLKTVALHARNAEYNPKRFAAVIMRIREPKTTALIFASGKMVVTGAKSEDDSKLASRKYARIIQKIGFAAKFTDFKIQNIVGSCDVKFPIRLEGLAFSHGTFSSYEPELFPGLIYRMVKPKIVLLIFVSGKIVLTGAKQREEIYQAFEAIYPVLSEFRKM
notes: 61-240; also called yTBP^C; yTBPc; source: E. coli (Rosetta strain), purified (Ni-NTA, HiTrap SP, Superdex 75); not shown: 6xHis, N-terminal, cleaved
As to B1, in the experiment with Kap114pΔY933, the Ka was 1.91e+08 M⁻¹ and 1.5e+08 M⁻¹ and 8.48e+07 M⁻¹; binding was put at a Kd of 7.7 nM. For the same molecule, the Ka in the experiment with Kap114p was 9.85e+08 M⁻¹ and 6.92e+08 M⁻¹ and 9.37e+08 M⁻¹.
